Assay results: patent US20020058024A1 (YEDA RESEARCH AND DEVELOPMENT, published 2002)

T1: RAP (RIP-associated protein) (human, UniProt Q9Y3I1 1-522, limits assumed)
T1 construct: The clone first isolated in the two-hybrid screen was a partial clone of about 1.9 Kb; also called RAP protein; RAP-1 (clone of about 2.2 kB, CNCM I-2706)
T1 sequence: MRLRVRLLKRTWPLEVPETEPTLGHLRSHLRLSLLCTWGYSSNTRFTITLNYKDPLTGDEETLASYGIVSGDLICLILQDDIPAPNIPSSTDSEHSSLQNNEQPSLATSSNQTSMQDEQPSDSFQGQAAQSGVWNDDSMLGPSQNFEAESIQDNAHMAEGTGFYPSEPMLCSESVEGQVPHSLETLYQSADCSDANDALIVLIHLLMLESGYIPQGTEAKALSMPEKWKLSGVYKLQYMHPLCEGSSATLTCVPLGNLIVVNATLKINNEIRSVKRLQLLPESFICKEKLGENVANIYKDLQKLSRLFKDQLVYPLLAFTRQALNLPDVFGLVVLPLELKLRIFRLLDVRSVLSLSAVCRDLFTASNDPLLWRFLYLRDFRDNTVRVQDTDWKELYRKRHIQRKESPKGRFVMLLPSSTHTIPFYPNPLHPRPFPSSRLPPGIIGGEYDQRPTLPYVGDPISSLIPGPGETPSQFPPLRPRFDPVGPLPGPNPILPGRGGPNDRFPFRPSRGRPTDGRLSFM

B1: p75-R (receptor, UniProt P20333 287-461, looked up)
chain: VKKKPLCLQREAKVPHLPADKARGTQGPEQQHLLITAPSSSSSSLESSASALDRRAPTRNQPQAPGVEASGAGEARASTGSSDSSPGGHGTQVNVTCIVNVCSSSDHSSQCSSQASSTMGDTDSSPSESPKDEQVPFSKEECAFRSQLETPETLLGSTEEKPLPLGVPDAGMKPS
notes: also called p75 TNF-R; p75 tumor necrosis factor receptor
B2: p55-R (receptor, UniProt P19438 235-455, looked up)
chain: RYQRWKSKLYSIVCGKSTPEKEGELEGTTTKPLAPNPSFSPTPGFTPTLGFSPVPSSTFTSSSTYTPGDCPNFAAPRREVAPPYQGADPILATALASDPIPNPLQKWEDSAHKPQSLDTDDPATLYAVVENVPPLRWKEFVRRLGLSDHEIDRLELQNGRCLREAQYSMLATWRRRTPRREATLELLGRVLRDMDLLGCLEDIEEALCGPAALPPAPSLLR
notes: also called p55 TNF-R; p55 tumor necrosis factor receptor
B3: MORT-1 (other, UniProt Q13158 1-208, looked up)
chain: MDPFLVLLHSVSSSLSSSELTELKFLCLGRVGKRKLERVQSGLDLFSMLLEQNDLEPGHTELLRELLASLRRHDLLRRVDDFEAGAAAGAAPGEEDLCAAFNVICDNVGKDWRRLARQLKVSDTKIDSIEDRYPRNLTERVRESLRIWKNTEKENATVAHLVGALRSCQMNLVADLVQEVQQARDLQNRSGAMSPMSWNSDASTSEAS
notes: also called FADD
B4: TRADD (other, UniProt Q15628 1-312, looked up)
chain: MAAGQNGHEEWVGSAYLFVESSLDKVVLSDAYAHPQQKVAVYRALQAALAESGGSPDVLQMLKIHRSDPQLIVQLRFCGRQPCGRFLRAYREGALRAALQRSLAAALAQHSVPLQLELRAGAERLDALLADEERCLSCILAQQPDRLRDEELAELEDALRNLKCGSGARGGDGEVASAPLQPPVPSLSEVKPPPPPPPAQTFLFQGQPVVNRPLSLKDQQTFARSVGLKWRKVGRSLQRGCRALRDPALDSLAYEYEREGLYEQAFQLLRRFVQAEGRRATLQRLVEALEENELTSLAEDLLGLTDPNGGLA

These binders were tested against T1, RAP (RIP-associated protein) (assay: binding assay tests (method not named)).

binding result	Binder
no binding	B1
no binding	B2
no binding	B3
no binding	B4
